{"source": "patent US20150110774A1", "about": "“S100 PROTEIN INHIBITORS FOR TREATING LEUKEMIA” (UNIVERSITE LAVAL, priority 2004, published 2015)", "molecules": {"B1": {"name": "S100A9: recombinant S100 calcium-binding protein, Myeloid Related Protein (MRP) (protein, UniProt P06702 1-114, looked up)", "Protein S100-A9": "MTCKMSQLERNIETIINTFHQYSVKLGHPDTLNQGEFKELVRKDLQNFLKKENKNEKVIEHIMEDLDTNADKQLSFEEFIMLMARLTWASHEKMHEGDEGPGHHHKPGLGEGTP"}, "B2": {"name": "S100A8: recombinant S100 calcium-binding protein, Myeloid Related Protein (MRP) (protein, UniProt P05109 1-93, looked up)", "Protein S100-A8": "MLTELEKALNSIIDVYHKYSLIKGNFHAVYRDDLKKLLETECPQYIRKKGADVWFKELDINTDGAVNFQEFLILVIKMGVAAHKKSHEESHKE"}, "B3": {"name": "S100A8/A9: heterodimer of S100A8 and S100A9 (protein, UniProt P05109 1-93; P06702 1-114, looked up)", "Protein S100-A8": "B2 Protein S100-A8", "Protein S100-A9": "B1 Protein S100-A9"}}, "key": {"advanced leukemia": {"tested_on": "advanced leukemia", "conditions": "clinical studies; cited from earlier work"}, "[1]": {"tested_on": "bone marrow cells from AML and CML patients", "test": "AML/CML patient bone marrow cell proliferation (colony assay)", "type": "cell-based, human", "conditions": "FIG. 4", "procedure": "PBMC and BM (5×10^4 cells) were incubated at 37° C. in methylcellulose-based media containing 1% methylcellulose in Iscove MDM, 30% foetal bovine serum, 1% BSA, 10^−4 M 2-mercaptoethanol and 2 mM of L-glutamine supplemented (+CSF) or not (−CSF) by 50 ng/mL of rhSCF, 10 ng/mL of rhIL-3, and 10 ng/mL of rhGM-CSF to support optimal growth of CFU-Granulocyte Macrophage (CFU-GM) CFU-Granulocyte (CFU-G) and CFU-Macrophage (CFU-M). Different concentrations of S100A12, S100A8, and/or S100A9 were also added to the cells. After 15 days, colony-forming units were counted.\nBone marrow cells were obtained by aspirates from a CML patient. (A) The cells were cultured for 14 days in Iscove medium supplemented with 15% FCS and 2% methylcellulose, in presence of increasing concentrations of S100A12. (B) The cells were culture for 14 days in presence of 10 pg/ml of S100A8, S100A9, S100A8/A9, or S100A12 in a methylcellulose medium supplemented or not with 50 ng/ml of Stem cell factor, 10 ng/ml of GM-CSF, and 10 ng/ml of IL-3. The results are the number of colonies per 30 mm^2 petri dishes (FIG. 4). As observed in Example III, different S100 proteins have stimulatory activity on bone marrow cells."}, "bone marrow cells": {"tested_on": "bone marrow cells", "test": "Bone marrow cell proliferation (colonies in methylcellulose, 14 days)", "type": "cell-based, mice", "conditions": "mouse bone marrow cells, FIG. 3", "procedure": "Bone marrow cells were collected by flushing PBS through incisions made in the femurs of mice, followed by disaggregation. After removing contaminating erythrocytes by hypoosmotic lysis, bone marrow cells were cultured in semi-solid state in Methocult methylcellulose-based media (Stemcell technologies) for 14 days in presence of increasing concentrations of S100A8. At the end of the incubation period, the colonies were numerated. Similar results were obtained with S100A9, S100A8/A9, and S100A12. Results are from one experiment representative of 2 others (FIG. 3). All monomers and heterodimers have shown a growth stimulatory activity on bone marrow cells."}, "leukocytes": {"tested_on": "leukocytes", "test": "Leukocyte accumulation in the murine air pouch model", "type": "in vivo, mice", "conditions": "air pouch exudate; remainder monocytes", "procedure": "S100A8, S100A9, and S100A12 induce an inflammatory reaction when injected in the murine air pouch model. In this model, sterile air is injected subcutaneously under the dorsum of mice on days 0 and 3. On day 7, an enclosed environment is formed in which it is possible to inject pro-inflammatory products. Injection of S100A8, S100A9, S100A12, or S100A8/A9 in the air pouch leads to the accumulation within 3 hrs of up to 8×10^6 leukocytes (FIG. 1). Leukocytes recruited consists of neutrophils (80%) and monocytes. The total number of neutrophils circulating in the peripheral blood of a mouse is estimated at 2.5×10^6 cells. […] This is confirmed by i.v. injections of S100 proteins which leads to the release of neutrophils from the bone marrow to the peripheral blood (FIG. 2). […] More importantly, the concentrations at which they exerted these functions are similar to those found in the plasma of patients suffering, for example but not limited to, from AML and CML.\nAir pouches were raised in 10 to 12 week-old CD-1 mice. One ml of murine S100A8 ([…], 5 nM) or phosphate buffered saline (PBS) were injected into the air pouches and the migrating leukocytes were harvested by washing with PBS-EDTA 5 mM at various times. Leukocytes in exudates were counted, centrifuged on microscope slides and stained with Wright-Giemsa. Data represent the mean±SEM of at least 7 mice (FIG. 1)."}}}
{"molecule": "Nc1ccn([C@@H]2CO[C@H](CO)O2)c(=O)n1", "note": "[β-L-OddC, (−)-β-L-Dioxolane-Cytidine]", "values": [{"measurement": "activity in patients with advanced leukemia", "setting": "advanced leukemia", "value": "significant activity"}]}
{"molecule": "B1", "values": [{"measurement": "proliferation of bone marrow cells from AML and CML patients", "setting": "[1]", "value": "proliferation also occurs"}, {"measurement": "proliferation of bone marrow cells", "setting": "bone marrow cells", "value": "increase of proliferation"}, {"measurement": "neutrophils among leukocytes recruited", "setting": "leukocytes", "value": 80, "unit": "%"}]}
{"molecule": "B2", "values": [{"measurement": "proliferation of bone marrow cells from AML and CML patients", "setting": "[1]", "value": "proliferation also occurs"}, {"measurement": "proliferation of bone marrow cells", "setting": "bone marrow cells", "value": "increase of proliferation"}, {"measurement": "neutrophils among leukocytes recruited", "setting": "leukocytes", "value": 80, "unit": "%"}]}
{"molecule": "B3", "values": [{"measurement": "proliferation of bone marrow cells", "setting": "bone marrow cells", "value": "increase of proliferation"}, {"measurement": "neutrophils among leukocytes recruited", "setting": "leukocytes", "value": 80, "unit": "%"}]}
